Assay results: publication PMC9638941, “Molecular basis of dual anti-CRISPR and auto-regulatory functions of AcrIF24” (Nucleic Acids Research, 2022)

Assays:
AcrIF24 Y128K/Y217W = molecular target: T1, AcrIF24 Y128K/Y217W (Pseudomonas aeruginosa prophage, UniProt A0AA82WNY5 1-228, Y128K;Y217W); assay: EMSA; EMSA-P: 10 mM HEPES pH 7.5, 1 mM MgCl2, 20 mM KCl, 1 mM TCEP, 5% glycerol, 30 min on ice; 10% native 0.5x TBE gel, SYBR Gold; Cascade EMSA buffer not in material; conditions: protein: recombinant; label: none (SYBR Gold stain); blunt
T1 sequence: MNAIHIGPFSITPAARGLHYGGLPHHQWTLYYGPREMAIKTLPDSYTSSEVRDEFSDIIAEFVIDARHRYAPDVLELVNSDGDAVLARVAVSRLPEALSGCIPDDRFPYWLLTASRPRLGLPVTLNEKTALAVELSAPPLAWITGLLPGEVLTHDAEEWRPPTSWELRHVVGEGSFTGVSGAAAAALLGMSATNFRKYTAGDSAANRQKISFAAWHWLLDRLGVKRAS

AcrIF24 S45Y [1] = molecular target: T2, AcrIF24 S45Y (Pseudomonas aeruginosa prophage, UniProt A0AA82WNY5 1-228, S45Y); assay: EMSA; native PAGE; EMSA-P: 10 mM HEPES pH 7.5, 1 mM MgCl2, 20 mM KCl, 1 mM TCEP, 5% glycerol, 30 min on ice; 10% native 0.5x TBE gel, SYBR Gold; Cascade EMSA buffer not in material; conditions: protein: recombinant; chain copies: 2; label: none (SYBR Gold stain); blunt
T2 sequence: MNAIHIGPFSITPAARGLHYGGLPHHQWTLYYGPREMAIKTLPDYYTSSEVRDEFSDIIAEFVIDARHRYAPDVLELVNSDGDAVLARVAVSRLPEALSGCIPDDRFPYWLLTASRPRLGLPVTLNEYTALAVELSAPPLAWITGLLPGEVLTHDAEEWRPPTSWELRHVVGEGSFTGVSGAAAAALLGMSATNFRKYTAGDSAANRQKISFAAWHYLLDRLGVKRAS

AcrIF24 K197Y [2] = molecular target: T3, AcrIF24 K197Y (Pseudomonas aeruginosa prophage, UniProt A0AA82WNY5 1-228, K197Y); assay: as above; conditions: protein: recombinant; chain copies: 2; label: none (SYBR Gold stain); blunt
T3 sequence: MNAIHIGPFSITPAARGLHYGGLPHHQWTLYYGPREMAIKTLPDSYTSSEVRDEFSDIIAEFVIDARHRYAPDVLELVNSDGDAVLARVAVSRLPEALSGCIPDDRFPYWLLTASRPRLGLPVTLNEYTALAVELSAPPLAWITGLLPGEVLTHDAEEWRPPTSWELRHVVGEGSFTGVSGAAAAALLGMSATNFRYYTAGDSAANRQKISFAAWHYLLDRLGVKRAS

AcrIF24 R207W [3] = molecular target: T4, AcrIF24 R207W (Pseudomonas aeruginosa prophage, UniProt A0AA82WNY5 1-228, R207W); assay: as above; conditions: protein: recombinant; chain copies: 2; label: none (SYBR Gold stain); blunt
T4 sequence: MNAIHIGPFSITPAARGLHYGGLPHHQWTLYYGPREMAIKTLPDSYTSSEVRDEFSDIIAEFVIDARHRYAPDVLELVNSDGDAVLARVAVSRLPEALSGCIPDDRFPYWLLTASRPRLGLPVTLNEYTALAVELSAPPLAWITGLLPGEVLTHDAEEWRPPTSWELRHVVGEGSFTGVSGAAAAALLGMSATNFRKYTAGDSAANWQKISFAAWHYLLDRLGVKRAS

AcrIF24 S45Y [4] = molecular target: T2, AcrIF24 S45Y; assay: EMSA; 1 uM protein; EMSA-P: 10 mM HEPES pH 7.5, 1 mM MgCl2, 20 mM KCl, 1 mM TCEP, 5% glycerol, 30 min on ice; 10% native 0.5x TBE gel, SYBR Gold; Cascade EMSA buffer not in material; conditions: protein: recombinant; chain copies: 2; label: none (SYBR Gold stain); blunt
AcrIF24 K197Y [5] = molecular target: T3, AcrIF24 K197Y; assay: as above; conditions: protein: recombinant; chain copies: 2; label: none (SYBR Gold stain); blunt
AcrIF24 R16W = molecular target: T5, AcrIF24 R16W (Pseudomonas aeruginosa prophage, UniProt A0AA82WNY5 1-228, R16W); assay: as above; conditions: protein: recombinant; chain copies: 2; label: none (SYBR Gold stain); blunt
T5 sequence: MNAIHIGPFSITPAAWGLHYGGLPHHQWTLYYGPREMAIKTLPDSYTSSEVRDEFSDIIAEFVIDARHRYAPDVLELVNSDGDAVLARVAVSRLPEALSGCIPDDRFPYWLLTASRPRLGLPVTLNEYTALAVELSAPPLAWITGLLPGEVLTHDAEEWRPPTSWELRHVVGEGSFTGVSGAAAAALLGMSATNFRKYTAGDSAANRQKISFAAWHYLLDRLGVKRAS

AcrIF24 R207W [6] = molecular target: T4, AcrIF24 R207W; assay: as above; conditions: protein: recombinant; chain copies: 2; label: none (SYBR Gold stain); blunt

Binder | binding result (AcrIF24 Y128K/Y217W) | binding result (AcrIF24 S45Y [1]) | binding result (AcrIF24 K197Y [2]) | binding result (AcrIF24 R207W [3]) | binding result (AcrIF24 S45Y [4]) | binding result (AcrIF24 K197Y [5]) | binding result (AcrIF24 R16W) | binding result (AcrIF24 R207W [6])
IR-L (dsDNA) DNA 1: CAGAATATCATTGCATAGCTCGATTCGAGCTAATATAGTAATACCAACAGCGCGGCACACCGCCAGCACTGAACCT DNA 2: AGGTTCAGTGCTGGCGGTGTGCCGCGCTGTTGGTATTACTATATTAGCTCGAATCGAGCTATGCAATGATATTCTG | no binding | binds | no binding | no binding |  |  |  | 
IR-S (dsDNA) DNA 1: TAGCTCGATTCGAGCTA DNA 2: TAGCTCGAATCGAGCTA |  |  |  |  | binds | no binding | binds | no binding
